Measured values as given in PMC9368766 (2022).

Assays:
KCK-FGF1.E [1] = target: KCK-FGF1.E (UniProt P05230); assay: BLI; deglycosylated FGFR1-Fc
T-Fc [2] = assay: BLI; deglycosylated FGFR1-Fc
T-Fc [3] = assay: BLI
KCK-FGF1.E [4] = target: KCK-FGF1.E (UniProt P05230); assay: BLI

Row | Binder | koff (KCK-FGF1.E [1]) [s⁻¹] | Kd (T-Fc [2]) [nM] | koff (T-Fc [2]) [s⁻¹] | Kd (T-Fc [3]) [nM] | Kd (KCK-FGF1.E [4]) [nM] | koff (KCK-FGF1.E [4]) [s⁻¹]
1 | de-glycosylated FGFR1-Fc (Fc fusion, N-glycans enzymatically removed with PNGase F) RPSPTLPEQAQPWGAPVEVESFLVHPGDLLQLRCRLRDDVQSINWLRDGVQLAESNRTRITGEEVEVQDSVPADSGLYACVTSSPSGSDTTYFSVNVSDALPSSEDDDDDDDSSSEEKETDNTKPNRMPVAPYWTSPEKMEKKLHAVPAAKTVKFKCPSSGTPNPTLRWLKNGKEFKPDHRIGGYKVRYATWSIIMDSVVPSDKGNYTCIVENEYGSINHTYQLDVVERSPHRPILQAGLPANKTVALGSNVEFMCKVYSDPQPHIQWLKHIEVNGSKIGPDNLPYVQILKTAGVNTTDKEMEVLHLRNVSFEDAGEYTCLAGNSIGLSHHSAWLTVLEALEERPAVMTSPLYLE | 0.00222 | 0.669 | 0.000448 |  |  | 
2 | Fully glycosylated extracellular domain of FGFR1 fused to the Fc fragment of human IgG1: FGFR1 IIIc (FGFR1-Fc) (Fc fusion, N-glycosylated (fully glycosylated)) RPSPTLPEQAQPWGAPVEVESFLVHPGDLLQLRCRLRDDVQSINWLRDGVQLAESNRTRITGEEVEVQDSVPADSGLYACVTSSPSGSDTTYFSVNVSDALPSSEDDDDDDDSSSEEKETDNTKPNRMPVAPYWTSPEKMEKKLHAVPAAKTVKFKCPSSGTPNPTLRWLKNGKEFKPDHRIGGYKVRYATWSIIMDSVVPSDKGNYTCIVENEYGSINHTYQLDVVERSPHRPILQAGLPANKTVALGSNVEFMCKVYSDPQPHIQWLKHIEVNGSKIGPDNLPYVQILKTAGVNTTDKEMEVLHLRNVSFEDAGEYTCLAGNSIGLSHHSAWLTVLEALEERPAVMTSPLYLE |  |  |  | 0.246 | 3.19 | 0.000304
